Reference: article PMC4067180

Experiments:
[1] = target: tektin A (S. purpuratus (endogenous in sperm flagella)); test: co-sedimentation; Ribbons extracted with 0.5% Sarkosyl and urea (1-3 M; 1.75 M for the stoichiometry) in 10TEAD; the insoluble tektin filaments analysed by SDS-PAGE densitometry (Serva Blue) and immunoblotting
[2] = target: tektin B (S. purpuratus (endogenous in sperm flagella)); test: as above

Substance | stoichiometry N [1] | stoichiometry N [2]
tektin B (natural protein) | 1 | 
tektin C (natural protein) | 1 | 1
